Biological target: dog street rabies virus DRV-4
Assay: cell-based or functional assay

B1: plant-derived human rabies monoclonal antibody MAb^P (rabies human MAb S057 expressed in transgenic (antibody, V domains shown)
VH: QVQLVQSGAEVKKPGSSVKVSCKASGGTFNRYTVNWVRQAPGQGLEWMGGIIPIFGTANYAQRFQGRLTITADESTSTAYMELSSLRSDDTAVYFCARENLDNSGTYYYFSGWFDPWGQGTLVTVSS
VL: QSALTQPRSVSGSPGQSVTISCTGTSSDIGGYNFVSWYQQHPGKAPKLMIYDATKRPSGVPDRFSGSKSGNTASLTISGLQAEDEADYYCCSYAGDYTPGVVFGGGTKLTVLG
**Q.** B1 was tested. Which Virus neutralizing antibody (VNA) titer, RFFIT did it give?
**A.** The Virus neutralizing antibody (VNA) titer, RFFIT was 81 IU/ml.

Reference: patent US20060134099A1
